Sequences and labels used below:
B1: 5124 (protein)
chain: MTPEEIIANVRAFYAALASGDLEAAKALFDPGTTITLWDGTTFTSLEEFLAWFEKQFDASKDAKREIVSIEVEGDTVRVLVRLTYTKDGKEQVVDLLQLLKFV
B2: 5122 (protein)
chain: MTPEEIFANVKAFYAALASGDLAAAKALFDPGTTITLWDGTTFTSLDEFLAWFEKQFKASKDAKREILSMEVEGDTVRVLVRLTYVKDGKEEVVDLLQLIKWV
B3: 5121 (protein)
chain: MTPEEIKENVKKFYEALASGDLETAKSLFDPGTTITLWDGTTFTSLEEFLAWFEKQFDASKDAKREIVSMEIKGNEVKVLVRLTYTKDGKEQTVDLLQLLKFV
B4: 5120 (protein)
chain: MTPEEIRENVLRFYEALASGDLETAKALFDPGTTITLWDGTTFTSLEEFLAWFEEQFDTSKDAKREILSLEIEGDVVRVLVRLTYVKDGEEKVVDLLQLLKWV
B5: 5119 (protein)
chain: MTPEQIRANVERFYAALASGDLETAKALFDPGTTITLWDGTTFTSLEEFLAWFEKQFKASKDAKREIVSLEIEGDTVRVLVRLTYTVDGEVKEVDLLQLLKFV
B6: 5123 (protein)
chain: B5 chain with Q5K, A8E, R12N, T24K, V68K, R78K, D88N, E90K, V91E, E93T
B7: MBIO-5365: computationally generated LgLux, SEQ ID NO 2780 (protein)
chain: MTPEELRQNLLRFYEALDSGDAVAAASLFNPGVTITLWDGTTFTSVEEFREWFETQFKTSKDALREIESLEVDGDTVRVTVRLTFTRDGEEQVVDLLQLFKFV
B8: MBIO-5367: computationally generated LgLux, SEQ ID NO 2782 (protein)
chain: B7 chain with P31S, T41A, V46I, E48K, E54D, R87S
B9: MBIO-5369: computationally generated LgLux, SEQ ID NO 2784 (protein)
chain: B7 chain with L6I, V23E, A26K, T55E, Q92K
B10: MBIO-5366: computationally generated LgLux, SEQ ID NO 2781 (protein)
chain: B7 chain with A26K
B11: MBIO-5370: computationally generated LgLux, SEQ ID NO 2785 (protein)
chain: B7 chain with L6I, L11R, V23E, A26K, N30D, T55E, Q92K
B12: MBIO-5368: computationally generated LgLux, SEQ ID NO 2783 (protein)
chain: B7 chain with A26K, P31S, T41A, V46I, E48K, E54D, R87S
B13: MBIO-5377: computationally generated LgLux, SEQ ID NO 2792 (protein)
chain: MTPEERIADVRAFYAALASGDLEAAKALFDPGVTITLWDGTTFTSVEEFRAWFEEQFKTSKDALREIESIEVDGDTVRVLVRLSFTRNGQKHTVDLLQQFKFI
B14: MBIO-5362: computationally generated LgLux, SEQ ID NO 2777 (protein)
chain: B13 chain with D9N, R11L, K26A, D30N, Q99L, I103V
B15: MBIO-5378: computationally generated LgLux, SEQ ID NO 2793 (protein)
chain: B13 chain with S84T, T86V, N88D, Q90E, K91E, H92K, T93V
B16: MBIO-5379: computationally generated LgLux, SEQ ID NO 2794 (protein)
chain: B13 chain with S84T, T86V, N88D, Q90E, K91E, H92K, T93V, Q99L
B17: MBIO-5372: computationally generated LgLux, SEQ ID NO 2787 (protein)
chain: B13 chain with R11L, D30N, S84T, T86V, N88D, Q90E, K91E, H92K, T93V
B18: MBIO-5371: computationally generated LgLux, SEQ ID NO 2786 (protein)
chain: B13 chain with R11L, D30N
B19: MBIO-5380: computationally generated LgLux, SEQ ID NO 2795 (protein)
chain: B13 chain with S84T, T86V, N88D, Q90E, K91E, H92K, T93V, Q99L, I103V
B20: MBIO-5363: computationally generated LgLux, SEQ ID NO 2778 (protein)
chain: B13 chain with D9N, R11L, D30N, Q99L, I103V
B21: MBIO-5364: computationally generated LgLux, SEQ ID NO 2779 (protein)
chain: B13 chain with D9N, Q99L, I103V
B22: MBIO-5381: computationally generated LgLux, SEQ ID NO 2796 (protein)
chain: MTPEERIANVLAFYAALASGDLEAAKALFNPGVTITLWDGTTFTSVEEFRAWFEEQFKTSKDALREIESIEVDGDTVRVLVRLTFVRDGEEKVVDLLQLFKFV
B23: MBIO-5373: computationally generated LgLux, SEQ ID NO 2788 (protein)
chain: B22 chain with K26A
B24: MBIO-5360: computationally generated LgLux, SEQ ID NO 2775 (protein)
chain: B22 chain with R6L, E23V, E55T, K92Q
B25: MBIO-5361: computationally generated LgLux, SEQ ID NO 2776 (protein)
chain: B22 chain with R6L, E23V, P31S, T41A, V46I, E48K, E54D, E55T, R87S, K92Q
B26: MBIO-5358: computationally generated LgLux, SEQ ID NO 2774 (protein)
chain: MSEEQIRQDLLRFYEALDSGDAITAASLFNPGVTITLWDGTTFTSVEEFREWFESQFSTSKDALREISSLEVRGDTVEVTVRLSFTRNGQKHTVDLLQQFKFI

Where a chain is given by its changes, count along the chain named.

In one test the test system is SmLux. Put plainly: Computationally generated LgLux variants expressed in E. coli, tested in lysates with SmLux and substrate 1c. It counts as biochemical. The settings on record: 20 uM SmLux, 50 uM substrate 1c. As for the experimental part: LgLux sequences were designed computationally, and their activity measured as depicted schematically in FIG. 45.
A library of the computationally generated LgLux variants were expressed in E. coli and tested in lysates. 20 uM of SmLux and 50 uM of substrate 1c was used for the screening.
LgLux_4039 sequence is as set forth in SEQ ID NO:2773. MBIO-5103 through MBIO-5124, MBIO-5261 through MBIO-5295, MBIO-5101, and MBIO-5102 (SEQ ID NO:2815-SEQ ID NO:2873, respectively) are computationally generated LgLux. The sequences and activity of these LgLux are shown below in Table 21.
MBIO-5358 and MBIO-5360 through MBIO-5381 (SEQ ID NO:2774-SEQ ID NO:2796, respectively) are computationally generated LgLux.
For B1, the “Fold change upon SmLux peptide addition” value is reported as 1.07.

In the case of B2, the “Fold change upon SmLux peptide addition” value is 1.04.

B3: the “Fold change upon SmLux peptide addition” value was 1.29.

In the case of B4, the “Fold change upon SmLux peptide addition” value is 1.09.

For B5, the “Fold change upon SmLux peptide addition” value is 0.98.

In the case of B6, the “Fold change upon SmLux peptide addition” value worked out at 1.09.

Still in this test, the particulars now being: 50 uM substrate 1c, before SmLux peptide addition.
With B1, the “Baseline Signal (Normalized by expression)” value is 187.6.

In the case of B2, the “Baseline Signal (Normalized by expression)” value came to 146.2.

As for B3, the “Baseline Signal (Normalized by expression)” value worked out at 126.6.

Regarding B4, the “Baseline Signal (Normalized by expression)” value was 148.4.

In the case of B5, the “Baseline Signal (Normalized by expression)” value is recorded as 155.6.

Regarding B6, the “Baseline Signal (Normalized by expression)” value is 145.6.

Staying with this test, now noted: Table 22, 20 uM SmLux, 50 uM substrate 1c.
For the molecule B7, the “Fold change upon SmLux peptide addition” value was determined as 359.8.

For the molecule B8, the “Fold change upon SmLux peptide addition” value was 6.08.

Turning to B9, the “Fold change upon SmLux peptide addition” value came to 289.49.

As to B10, the “Fold change upon SmLux peptide addition” value came out at 32.61.

As for B11, the “Fold change upon SmLux peptide addition” value is reported as 390.25.

In the case of B12, the “Fold change upon SmLux peptide addition” value is 4.95.

For the molecule B13, the “Fold change upon SmLux peptide addition” value was found to be 205.44.

For B14, the “Fold change upon SmLux peptide addition” value amounted to 27.24.

Turning to B15, the “Fold change upon SmLux peptide addition” value is recorded as 85.83.

B16: the “Fold change upon SmLux peptide addition” value is on record as 176.25.

In the case of B17, the “Fold change upon SmLux peptide addition” value came to 20.86.

For B18, the “Fold change upon SmLux peptide addition” value is 48.58.

With B19, the “Fold change upon SmLux peptide addition” value is given as 157.38.

Take B20: the “Fold change upon SmLux peptide addition” value stood at 32.23.

On to B21, for which the “Fold change upon SmLux peptide addition” value worked out at 172.59.

Take B22: the “Fold change upon SmLux peptide addition” value was 22.28.

As for B23, the “Fold change upon SmLux peptide addition” value is listed as 151.01.

On to B24, for which the “Fold change upon SmLux peptide addition” value turned out to be 3.64.

As to B25, the “Fold change upon SmLux peptide addition” value is given as 5.17.

Turning to B26, the “Fold change upon SmLux peptide addition” value was found to be 243.66.

Staying with this test, now noted: Table 22, 50 uM substrate 1c.
For the molecule B7, the “Baseline Signal (Normalized by expression)” value worked out at 1452.6.

Regarding B8, the “Baseline Signal (Normalized by expression)” value was 231.6.

As to B9, the “Baseline Signal (Normalized by expression)” value came to 760.

As for B10, the “Baseline Signal (Normalized by expression)” value is listed as 931.2.

In the case of B11, the “Baseline Signal (Normalized by expression)” value came to 4567.

Regarding B12, the “Baseline Signal (Normalized by expression)” value is listed as 366.8.

Turning to B13, the “Baseline Signal (Normalized by expression)” value stood at 324.4.

B14: the “Baseline Signal (Normalized by expression)” value is on record as 906.4.

Turning to B15, the “Baseline Signal (Normalized by expression)” value was 197.

Consider B16, for which the “Baseline Signal (Normalized by expression)” value worked out at 338.4.

For B17, the “Baseline Signal (Normalized by expression)” value was 210.6.

For B18, the “Baseline Signal (Normalized by expression)” value stood at 234.6.

On to B19, for which the “Baseline Signal (Normalized by expression)” value is listed as 322.6.

Turning to B20, the “Baseline Signal (Normalized by expression)” value came to 339.2.

As to B21, the “Baseline Signal (Normalized by expression)” value is given as 376.8.

In the case of B22, the “Baseline Signal (Normalized by expression)” value is 158.6.

In the case of B23, the “Baseline Signal (Normalized by expression)” value stood at 388.2.

Turning to B24, the “Baseline Signal (Normalized by expression)” value was 150.2.

In the case of B25, the “Baseline Signal (Normalized by expression)” value is 156.4.

Turning to B26, the “Baseline Signal (Normalized by expression)” value was 440.6.

The values above are taken from patent US20260250737A1, “Engineered Luciferases and Luciferin Substrates” (Monod Bio, Inc., priority 2023, published 2026).
